We go through 3 substances from paper PMC11366018.

pKd: −log10 of the molar value.

The target in the assay is S2A4 (human). The assay can be described thus: BLI. Background: In BLI a coated tip is dipped into the sample, and binding shifts an interference pattern.
Chain of S2A4 (human) (heavy, as listed by the source, chain 1 of 2): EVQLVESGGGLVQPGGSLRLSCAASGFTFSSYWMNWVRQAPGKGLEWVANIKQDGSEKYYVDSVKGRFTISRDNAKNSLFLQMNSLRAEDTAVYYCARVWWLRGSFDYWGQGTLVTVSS
Chain of S2A4 (human) (light, as listed by the source, chain 2 of 2): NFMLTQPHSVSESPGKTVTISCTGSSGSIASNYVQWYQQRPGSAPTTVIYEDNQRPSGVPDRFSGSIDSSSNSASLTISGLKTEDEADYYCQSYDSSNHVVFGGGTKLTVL
Usually pKd stands for −log10 of the Kd, conventionally taken in molar units. Read a low pKd as a large Kd. In the case of “Omicron-(L371S+F375S) RBD (from UniProt P0DTC2 319-541) (domain or fragment)”, the pKd was 7.12.
Consider “Omicron-(L371S+P373S) RBD (from UniProt P0DTC2 319-541) (domain or fragment)”, for which the pKd is 7.05.
The substance “Omicron-(P373S+F375S) RBD (from UniProt P0DTC2 319-541) (domain or fragment)” showed a pKd of 7.41.
